B1: peroxiredoxin PRDX2 (enzyme, human (endogenous in red blood cells), UniProt P32119 1-198, looked up)
chain: MASGNARIGKPAPDFKATAVVDGAFKEVKLSDYKGKYVVLFFYPLDFTFVCPTEIIAFSNRAEDFRKLGCEVLGVSVDSQFTHLAWINTPRKEGGLGPLNIPLLADVTRRLSEDYGVLKTDEGIAYRGLFIIDGKGVLRQITVNDLPVGRSVDEALRLVQAFQYTDEHGEVCPAGWKPGSDTIKPNVDDSKEYFSKHN

Experiments:
[1] = target: 20S proteasome (human (endogenous in red blood cells)) (UniProt P25786); experiment: negative stain electron microscopy
[2] = target: the molecule itself; experiment: negative stain electron microscopy

Chain of 20S proteasome (human (endogenous in red blood cells)) (P25786 whole entry, looked up): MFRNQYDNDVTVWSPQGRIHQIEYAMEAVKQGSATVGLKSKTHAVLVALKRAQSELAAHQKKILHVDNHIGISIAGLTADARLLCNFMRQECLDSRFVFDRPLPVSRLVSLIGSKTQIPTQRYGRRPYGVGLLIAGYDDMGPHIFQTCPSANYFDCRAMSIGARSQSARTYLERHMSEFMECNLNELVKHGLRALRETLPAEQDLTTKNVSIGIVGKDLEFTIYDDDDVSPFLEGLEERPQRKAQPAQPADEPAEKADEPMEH

| Molecule | percent of the observed proteasomes that were singly-capped 26S [1] [%] | stoichiometry N [2] |
| --- | --- | --- |
| 19S regulatory cap of the proteasome (complex) | 6 |  |
| B1 |  | 10 |
